How the values were obtained:
Test in all cases: purified protein
Conditions in all cases: pH 6.5, 55 °C, 10 min, sodium phosphate, metal-dependent enzyme
purified protein [1] = substrate: O=[N+]([O-])c1ccc(O[C@H]2O[C@H](CO)[C@@H](O)[C@@H]2O)cc1
purified protein [2] = substrate: C[C@H]1O[C@@H](Oc2ccc([N+](=O)[O-])cc2)[C@H](O)[C@@H](O)[C@H]1O
purified protein [3] = substrate: O=[N+]([O-])c1ccc(O[C@H]2OC[C@@H](O)[C@@H](O)[C@@H]2O)cc1
purified protein [4] = substrate: O=[N+]([O-])c1ccc(O[C@@H]2O[C@H](CO)[C@H](O)[C@H](O)[C@H]2O)cc1

B1: ThABF (Trichoderma harzianum) (protein)
chain: GPCDIYSSGGTPCVAAHSTTRALYSAYTGPLYQVKRGSDGATTTISPLSSGVANAAAQDSFCAGTTCLITIIYDQSGRGNHLTQAPPGGFNGPESNGYDNLASAIGAPVTLNGQKAYGVFISPGTGYRNNAASGTAKGDAAEGMYAVLDGTHYNGACCFDYGNAETSSRDTGNGHMEAIYYGDSTVWGTGSGNGPWIMADLENGLFSGSAVHNNAGDPSISYRFVTAAVKGQPNQWAIRGGNSASGSLSTFYNGARPSASGYNPMSKEGAIILGIGGDNSNGAQGTFYEGVMTSGYPSDATENSVQANIVAAKYAVTSLTSGPALTTGSSVSLRATTACCTTRYITHSGSTVNTQVVSSSSATAPKQQASWTVRAGLGNSGCFSFESKDTPGSYIRHNNFVLLLNANDGSKQFAEDATFCPQAGLNGQGSSLRAWGYPTRYFRHYDNVLYVASNGGVHTFDATGSFNDDVSFVISASFA
Km (purified protein [1]): 6.75 ± 3.24 mM | kcat (purified protein [1]): 1.61 s⁻¹ | kcat/Km (purified protein [1]): 238 M⁻¹ s⁻¹ | Km (purified protein [2]): 6.51 ± 1.00 mM | kcat (purified protein [2]): 35.7 s⁻¹ | kcat/Km (purified protein [2]): 5480 M⁻¹ s⁻¹ | Km (purified protein [3]): 3.30 ± 0.16 mM | kcat (purified protein [3]): 13.4 s⁻¹ | kcat/Km (purified protein [3]): 4070 M⁻¹ s⁻¹ | Km (purified protein [4]): 1.68 ± 0.12 mM | kcat (purified protein [4]): 35.5 s⁻¹ | kcat/Km (purified protein [4]): 21100 M⁻¹ s⁻¹
